Data published in article PMC9792439 (Biochimica et biophysica acta. General subjects, 2022).

Molecular target: GST-tagged wild type human UBQLN2 (human, UniProt Q9UHD9 1-624)
Assay: pull-down

Sequence of GST-tagged wild type human UBQLN2 (Q9UHD9 whole entry): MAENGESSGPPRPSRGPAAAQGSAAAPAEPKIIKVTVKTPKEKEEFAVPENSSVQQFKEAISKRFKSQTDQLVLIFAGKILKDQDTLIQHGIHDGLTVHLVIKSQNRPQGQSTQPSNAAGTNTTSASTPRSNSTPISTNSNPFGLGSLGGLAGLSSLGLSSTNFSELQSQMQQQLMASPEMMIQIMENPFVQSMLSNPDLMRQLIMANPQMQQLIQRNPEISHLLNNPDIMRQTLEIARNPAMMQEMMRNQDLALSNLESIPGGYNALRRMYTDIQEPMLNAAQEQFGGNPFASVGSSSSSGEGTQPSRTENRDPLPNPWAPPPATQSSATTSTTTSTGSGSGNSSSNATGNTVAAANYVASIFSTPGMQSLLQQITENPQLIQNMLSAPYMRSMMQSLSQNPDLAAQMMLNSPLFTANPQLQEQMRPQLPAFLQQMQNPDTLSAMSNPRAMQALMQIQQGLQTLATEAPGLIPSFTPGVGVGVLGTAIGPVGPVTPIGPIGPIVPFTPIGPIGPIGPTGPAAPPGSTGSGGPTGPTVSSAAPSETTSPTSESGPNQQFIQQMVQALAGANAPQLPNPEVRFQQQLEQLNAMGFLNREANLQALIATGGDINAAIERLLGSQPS

binding result: binds
B1: HSPA1B ATP-binding domain (1 to 385 aa) with 6 His tag (domain or fragment)
chain: not shown
